“Also recorded” adds a separate entry of the source. Like-named read-outs stand apart in the source and are kept apart here.
Assays:
[1] = biological target: T1, CCL19_HUMAN (Homo sapiens, UniProt Q99731); experiment: Yeast surface display (YSD) FACS binding
T1 sequence (Q99731 22-98): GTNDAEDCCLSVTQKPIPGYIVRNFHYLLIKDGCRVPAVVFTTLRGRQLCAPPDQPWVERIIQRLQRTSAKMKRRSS
Method in brief: (§1)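 Yeast clones displaying tick peptides were re-tested by FACS with labelled chemokine. Binding = % of peptide-expressing yeast above a background threshold set with streptavidin-Alexa647 alone; the mean percent shift was used where several clones were isolated. Confirmed binding ("YES") required >3-fold over background mean fluorescence intensity.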

[2] = biological target: CCL11_HUMAN (Homo sapiens, UniProt P51671); experiment: Yeast surface display (YSD) FACS binding
Chain of CCL11_HUMAN (P51671 24-97): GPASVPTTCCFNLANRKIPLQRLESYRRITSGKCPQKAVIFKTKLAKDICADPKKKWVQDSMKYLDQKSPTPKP
Method in brief: as §1

[3] = biological target: T2, CCL5_HUMAN (Homo sapiens, UniProt P13501); experiment: Yeast surface display (YSD) FACS binding
T2 sequence (P13501 24-91): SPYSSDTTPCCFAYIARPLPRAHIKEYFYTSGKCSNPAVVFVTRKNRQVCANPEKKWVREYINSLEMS
Method in brief: as §1

[4] = biological target: T3, CCL1_HUMAN (Homo sapiens, UniProt P22362); experiment: Yeast surface display (YSD) FACS binding
T3 sequence (P22362 24-96): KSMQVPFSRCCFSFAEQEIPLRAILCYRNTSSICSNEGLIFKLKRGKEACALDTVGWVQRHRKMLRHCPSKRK
Method in brief: as §1

[5] = biological target: T4, CCL3_HUMAN (Homo sapiens, UniProt P10147); experiment: Yeast surface display (YSD) FACS binding
T4 sequence (P10147 24-92): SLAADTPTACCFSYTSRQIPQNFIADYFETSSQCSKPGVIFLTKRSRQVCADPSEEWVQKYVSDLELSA
Method in brief: as §1

[6] = biological target: T5, CCL17_HUMAN (Homo sapiens, UniProt Q92583); experiment: Yeast surface display (YSD) FACS binding
T5 sequence (Q92583 24-94): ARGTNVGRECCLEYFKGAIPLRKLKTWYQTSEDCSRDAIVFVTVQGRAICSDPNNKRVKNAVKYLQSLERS
Method in brief: as §1

[7] = biological target: T6, CXCL1_HUMAN (Homo sapiens, UniProt P09341); experiment: Biolayer interferometry (BLI) binding; design: label (chemical)
T6 sequence (P09341 35-107): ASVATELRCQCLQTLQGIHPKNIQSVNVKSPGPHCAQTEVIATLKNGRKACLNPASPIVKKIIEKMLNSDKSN
Method: (§2) Table 1. Tick CKBPs described in PCT/GB2017/050563 and [17]. Tick peptide sequences isolated in yeast surface display fluorescent-activated cell sorting (FACS) screens using a labelled chemokine. Identity with Evasin-1, 4 or 3 was calculated using BLAST. Abbreviations: IXORI—Ixodes ricinus, RHISA—Rhipicephalus sanguineus, AMBMA—Amblyomma maculatum, AMBPA—Amblyomma parvum, AMBTR—Amblyomma triste, AMBAM—Amblyomma americanum, AMBCA—Amblyomma cajennense, RHIPU—Rhipicephalus pulchellus. Table 2A-C. Binding characteristics of tick CKBPs previously disclosed (PCT/GB2017/050563 and [17]). All members of the human chemokine family[164] are listed in column 1. Binding to human chemokines was determined for 14 tick CKBPs using biolayer interferometry (BLI) with calculated Kd shown as Molar (Moles/Litre). […] Association, equilibrium and dissociation data were analysed using Octet software to create corresponding fitted curves, and used to calculate Kd. For yeast surface display, (YSD) background fluorescence was controlled for by using either an empty vector or by omitting the chemokine (i.e. using streptavidin-Alexa647 alone). An arbitrary threshold of >3 fold over background mean fluorescence intensity was chosen to describe confirmed re-tests. Where binding was detected data are indicated as “YES”. […] Data was analysed using GraphPad Prism to determine IC50, which is shown as Molar (Moles/Litre). […]

[8] = biological target: T7, CXCL8_HUMAN (Homo sapiens, UniProt P10145); experiment: Biolayer interferometry (BLI) binding; design: label (chemical)
T7 sequence (P10145 21-99): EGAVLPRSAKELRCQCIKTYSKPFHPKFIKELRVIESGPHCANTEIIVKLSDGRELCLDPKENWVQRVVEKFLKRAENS
Method: as §2

[9] = biological target: T8, CXCL3_HUMAN (Homo sapiens, UniProt P19876); experiment: Biolayer interferometry (BLI) binding
T8 sequence (P19876 35-107): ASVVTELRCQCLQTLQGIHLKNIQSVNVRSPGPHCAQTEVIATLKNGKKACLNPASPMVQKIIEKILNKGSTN
Method in brief: (§3)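 Kd (M) came from curve fits to association, equilibrium and dissociation phases. Purified His-tagged tick evasin was immobilised on Ni-NTA biosensors; chemokines binding in a 300 nM cross-screen were then tested at a range of concentrations.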

[10] = biological target: T9, CCL4_HUMAN (Homo sapiens, UniProt P13236); experiment: Yeast surface display (YSD) FACS binding
T9 sequence (P13236 24-92): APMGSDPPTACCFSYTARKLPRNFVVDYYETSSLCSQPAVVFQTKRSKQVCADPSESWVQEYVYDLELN
Method in brief: as §1

[11] = biological target: T6, CXCL1_HUMAN; conditions: read-out: Kd, CXCL1_HUMAN, previously described evasins; data obtained from publications [20-22,32]; cited from earlier work
[12] = biological target: T7, CXCL8_HUMAN; conditions: read-out: Kd, CXCL8_HUMAN, previously described evasins; data obtained from publications [20-22,32]; cited from earlier work
[13] = test system: chemokines; conditions: list of chemokines bound, from the literature [18,20-22], cited from earlier work
[14] = biological target: T10, CCL8_HUMAN (Homo sapiens, UniProt P80075); experiment: Biolayer interferometry (BLI) binding; conditions: 300 nM or 600 nM CCL8
T10 sequence (P80075 24-99): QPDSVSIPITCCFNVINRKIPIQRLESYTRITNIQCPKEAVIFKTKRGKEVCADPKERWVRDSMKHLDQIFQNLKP
Method in brief: as §3

[15] = biological target: CCL3L1_HUMAN (Homo sapiens, UniProt P16619); conditions: read-out: Kd, CCL3L1_HUMAN, previously described evasins; data obtained from publications [20-22,32]; cited from earlier work
Chain of CCL3L1_HUMAN (P16619 24-93): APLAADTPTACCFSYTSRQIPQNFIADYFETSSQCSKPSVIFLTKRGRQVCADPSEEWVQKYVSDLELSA

[16] = biological target: T11, CCL18_HUMAN (Homo sapiens, UniProt P55774); conditions: read-out: Kd, CCL18_HUMAN, previously described evasins; data obtained from publications [20-22,32]; cited from earlier work
T11 sequence (P55774 21-89): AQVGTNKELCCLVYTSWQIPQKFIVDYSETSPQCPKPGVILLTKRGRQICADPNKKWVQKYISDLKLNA

[17] = biological target: T4, CCL3_HUMAN; conditions: read-out: Kd, CCL3_HUMAN, previously described evasins; data obtained from publications [20-22,32]; cited from earlier work
[18] = biological target: T9, CCL4_HUMAN; conditions: read-out: Kd, CCL4_HUMAN, previously described evasins; data obtained from publications [20-22,32]; cited from earlier work

B1: P1005_AMBMA: tick CKBP, Amblyomma maculatum (protein, listed as Amblyomma maculatum)
chain: EKDTPKNIPGCGDTGTTAAPPADNPKHFAVYTDKHGCTIKVIGTWMTKEDHSRLPVSLRRVRASSGRVMLPASCQKICNDTVKNFPEGTPCRLVTGDPIKGKNHIKDGCIRGYCSSGVCVSDKRNISCYVPPN
Binding to CCL19_HUMAN, YSD [1]: YES (An arbitrary threshold of >3 fold over background mean fluorescence intensity was chosen to describe confirmed re-tests. Where binding was detected data are indicated as “YES”) | Binding to CCL11_HUMAN, YSD [2]: YES (An arbitrary threshold of >3 fold over background mean fluorescence intensity was chosen to describe confirmed re-tests. Where binding was detected data are indicated as “YES”) | Binding to CCL5_HUMAN, YSD [3]: YES (An arbitrary threshold of >3 fold over background mean fluorescence intensity was chosen to describe confirmed re-tests. Where binding was detected data are indicated as “YES”) | Binding to CCL1_HUMAN, YSD [4]: YES (An arbitrary threshold of >3 fold over background mean fluorescence intensity was chosen to describe confirmed re-tests. Where binding was detected data are indicated as “YES”) | Binding to CCL3_HUMAN, YSD [5]: YES (An arbitrary threshold of >3 fold over background mean fluorescence intensity was chosen to describe confirmed re-tests. Where binding was detected data are indicated as “YES”) | Binding to CCL17_HUMAN, YSD [6]: YES (An arbitrary threshold of >3 fold over background mean fluorescence intensity was chosen to describe confirmed re-tests. Where binding was detected data are indicated as “YES”)

B2: P1156_IXORI: tick CKBP, Ixodes ricinus (protein, listed as Ixodes ricinus)
chain: ADDDNELFTVQYCGMNCTKDEGGTWTGCTGKKEGCKCYHESGKNYGLCLSTEYTDFSQYGNPSDSEIEAAKPKRSDTLSH
Kd [7]: 3.25 nM | Kd [8]: 4.6 nM | Kd [9]: 81 nM

B3: P1014_AMBCA: tick CKBP, Amblyomma cajennense (protein)
chain: DIIGGIPGCGDPTTTSAPEVPPKHFAVRTDKDGCTLMIIGTWMTTEDHNRLPPDIGEKRAPYGRVQLPASCKKNCHGKVKNLPNGTPCREVFGDPRRGRKHIKNGCTVGKCQSGLCVTDKRIISCYIPPNITDPIPTHGPWAE
modifications: Amblyomma cajennense
Binding to CCL4_HUMAN, YSD [10]: YES (An arbitrary threshold of >3 fold over background mean fluorescence intensity was chosen to describe confirmed re-tests. Where binding was detected data are indicated as “YES”)

B4: EVASIN3: previously described tick CKBP evasin 3, from Rhipicephalus sanguineus (protein, listed as Rhipicephalus sanguineus)
chain: LVSTIESRTSGDGADNFDVVSCNKNCTSGQNECPEGCFCGLLGQNKKGHCYKIIGNLSGEPPVVRR
Kd [11]: 0.85 nM | Kd [12]: 0.43 nM | Previously described chemokine binding [13]: CXCL1, CXCL8.

B5: EVASIN1: previously described tick CKBP evasin 1, from Rhipicephalus sanguineus (protein, listed as Rhipicephalus sanguineus)
chain: EDDEDYGDLGGCPFLVAENKTGYPTIVACKQDCNGTTETAPNGTRCFSIGDEGLRRMTANLPYDCPLGQCSNGDCIPKETYEVCYRRNWRDKKN
CCL8 binding (bound or not) [14]: did not | Kd [15]: 0.05 nM | Kd [16]: 3 nM | Kd [17]: 0.1 nM | Kd [18]: 0.5 nM | Previously described chemokine binding ([13]; listed as EVA1_RHISA): CCL3, CCL3L1, CCL4, CCL4L1, CCL14 and CCL18 but not CCL8; also recorded: CCL3, CCL3L1,; also recorded: CCL4, CCL18

From patent publication US20200247855A1, “THERAPY AND DIAGNOSTICS” (OXFORD UNIVERSITY INNOVATION LIMITED, priority 2017, published 2020)
